According to US7897573B2, “Selective VPAC2 receptor peptide agonists” (priority 2005, dated 2011):
Where two headings read alike, the source gives them in different places. Where no end group is shown, it is not given here.

Key:
Human VPAC1 Receptor = biological target: T1, Human VPAC1 Receptor (Homo sapiens, UniProt P32241); assay: Filter binding assay, 125I-labeled VIP, membranes of cells transiently transfected with human VPAC1; settings: 125I-labeled VIP tracer
T1 construct: expressed in transfected cells
T1 sequence (P32241 31-457): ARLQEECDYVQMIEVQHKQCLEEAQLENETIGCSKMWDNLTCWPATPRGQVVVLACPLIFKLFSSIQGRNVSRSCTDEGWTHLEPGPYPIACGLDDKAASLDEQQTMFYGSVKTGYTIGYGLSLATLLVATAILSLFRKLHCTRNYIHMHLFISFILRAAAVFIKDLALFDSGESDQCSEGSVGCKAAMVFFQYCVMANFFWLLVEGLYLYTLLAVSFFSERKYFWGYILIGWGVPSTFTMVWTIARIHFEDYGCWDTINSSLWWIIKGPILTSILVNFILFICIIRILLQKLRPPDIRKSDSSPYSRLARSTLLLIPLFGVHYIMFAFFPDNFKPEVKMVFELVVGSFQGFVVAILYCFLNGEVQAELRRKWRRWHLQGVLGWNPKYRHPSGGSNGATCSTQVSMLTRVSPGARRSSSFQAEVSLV
Experimental: (§1) For this assay, the solutions and equipment include:
(§2) Presoak solution: 0.5% Polyethyleneamine in Aqua dest
(§3) Buffer for flushing filter plates: 25 mM HEPES pH 7.4
(§4) Blocking buffer: 25 mM HEPES pH 7.4; 0.2% protease free BSA
(§5) Assay buffer: 25 mM HEPES pH 7.4; 0.5% protease free BSA
(§6) Dilution and assay plate: PS-Microplate, U form
(§7) Filtration Plate Multiscreen FB Opaque Plate; […] Type B Glasfiber filter
(§8) In order to prepare the filter plates, the presoak solution is aspirated by vacuum filtration. The plates are flushed twice with 200 μL flush buffer. 200 μL blocking buffer is added to the filter plate. The filter plate is then incubated with 200 μL presoak solution for 1 hour at room temperature.
(§9) The assay plate is filled with 25 μL assay buffer, 25 μL membranes (2.5 μg) suspended in assay buffer, 25 μL agonist in assay buffer, and 25 μL tracer (about 40000 cpm) in assay buffer. The filled plate is incubated for 1 hour with shaking.
(§10) The transfer from assay plate to filter plate is conducted. The blocking buffer is aspirated by vacuum filtration and washed two times with flush buffer. 90 μL is transferred from the assay plate to the filter plate. The 90 μL transferred from assay plate is aspirated and washed three times with 200 μL flush buffer. The plastic support is removed. It is dried for 1 hour at 60° C. 30 μL Microscint is added. The count is performed.

Human PAC1 Receptor = biological target: T2, Human PAC1 Receptor (Homo sapiens, UniProt P41586); assay: Filter binding assay, 125I-labeled PACAP-27, membranes of cells transiently transfected with human PAC1
T2 construct: expressed in transfected cells
T2 sequence (P41586 21-468): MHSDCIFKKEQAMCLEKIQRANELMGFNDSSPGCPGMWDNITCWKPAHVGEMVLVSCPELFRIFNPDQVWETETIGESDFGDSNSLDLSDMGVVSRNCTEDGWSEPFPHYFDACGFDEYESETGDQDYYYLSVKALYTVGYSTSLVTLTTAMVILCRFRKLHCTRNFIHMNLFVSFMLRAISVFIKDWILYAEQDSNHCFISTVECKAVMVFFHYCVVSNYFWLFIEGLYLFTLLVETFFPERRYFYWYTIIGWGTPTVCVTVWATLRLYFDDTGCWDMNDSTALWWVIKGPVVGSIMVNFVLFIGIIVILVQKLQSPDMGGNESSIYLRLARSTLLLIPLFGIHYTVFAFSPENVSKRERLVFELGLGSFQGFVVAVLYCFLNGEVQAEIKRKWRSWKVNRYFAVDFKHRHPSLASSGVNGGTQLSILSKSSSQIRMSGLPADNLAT
Experimental: as §1, §2, §3, §4, §5, §6, §7, §8, §9, §10

Normal Wistar rats = assay: Intravenous glucose tolerance test (IVGTT); assay type: in vivo, rat; settings: AUC insulin, 0-10 min after glucose, 24 h between glucose & compound, Wistar rats
Experimental: Intravenous glucose tolerance test (IVGTT): Normal Wistar rats are fasted overnight and are anesthetized prior to the experiment. A blood sampling catheter is inserted into the rats. The agonist is given subcutaneously, normally 24 h prior to the glucose challenge. Blood samples are taken from the carotid artery. A blood sample is drawn immediately prior to the injection of glucose along with the agonist. After the initial blood sample, glucose mixed is injected intravenously (i.v.). A glucose challenge of 0.5 g/kg body weight is given, injecting a total of 1.5 mL vehicle with glucose and agonist per kg body weight. The peptide concentrations are varied to produce the desired dose in μg/kg. Blood samples are drawn at 2, 4, 6 and 10 minutes after giving glucose. The control group of animals receives the same vehicle along with glucose, but with no agonist added. In some instances, 20 and 30 minute post-glucose blood samples were drawn. Aprotinin is added to the blood sample (250-500 kIU/ml blood). The plasma is then analyzed for glucose and insulin using standard methodologies.
The assay uses a formulated and calibrated peptide stock in PBS. Normally, this stock is a prediluted 100 μM stock. However, a more concentrated stock with approximately 1 mg agonist per mL is used. The specific concentration is always known. Variability in the maximal response is mostly due to variability in the vehicle dose.

[1] = Pharmacokinetic profiles of PEGylated peptides in Fisher 344 rats; assay type: in vivo, rat; settings: 100 μg agonist/kg, plasma RIA, mean N = 3
Experimental: Pharmacokinetic profiles of PEGylated peptides. Healthy Fisher 344 rats (3 animals per group) were injected with 100 μg agonist/kg (agonist amount based on peptide content and dissolved in PBS buffer). Blood samples were drawn 3, 12, 24, 48, 72, 96 and 168 hour post dosing and the peptide content in plasma was analysed by a radio-immunoassay (RIA) directed against the N-terminus of the peptide. PK parameters were then calculated using a model-independent method (WinNonlin Pro, Pharsight Corp., Mountain View, Calif., USA).

[2] = Rat serum stability study (DiscoveRx cAMP read-out on CHO-VPAC2 cells); settings: 24 h in rat serum at 37° C.; EC50, 4° C./EC50, 37° C.; values >100% may represent release of intact peptide from the PEG conjugate
Experimental: In order to determine the stability of VPAC2 receptor peptide agonists in rat serum, CHO-VPAC2 cells clone #6 (96 well plates/50,000 cells/well and 1 day culture), PBS 1× (Gibco), the peptides for the analysis in a 100 μM stock solution, rat serum from a sacrificed normal Wistar rat, aprotinin, and a DiscoveRx assay kit are obtained. The rat serum is stored at 4° C. until use and is used within two weeks.
The aliquot is stored with aprotinin at 4° C. The aliquot is stored without aprotinin at 37° C. The aliquots are incubated for 24 or 72 hours.
On Day 1, after incubation of the aliquots prepared on day 0 for 24 or 72 hours, an incubation buffer containing PBS+1.3 mM CaCl2, 1.2 mM MgCl2, 2 mM glucose, and 0.25 mM IBMX is prepared. A plate with 11 serial 5× dilutions of peptide for the 4° C. and 37° C. aliquot is prepared for each peptide studied. […] The plate(s) are washed with cells twice in incubation buffer. The plates are allowed to hold 50 μL incubation media per well for 15 minutes. 50 μL solution per well is transferred to the cells from the plate prepared with 11 serial 5× dilutions of peptide for the 4° C. and 37° C. aliquot for each peptide studied, using the maximal concentrations that are indicated by the primary screen, in duplicate. This step dilutes the peptide concentration by a factor of two. The cells are incubated at room temperature for 30 minutes. The supernatant is removed. 40 μL/well of the DiscoveRx antibody/extraction buffer is added. The cells are incubated on the shaker (300 rpm) for 1 hour. Normal procedure with the DiscoveRx kit is followed. cAMP standards are included in column 12. EC50 values are determined from the cAMP assay data.

For “C6-HSDAVFTEQY(OMe)TOrnLRAibQVAAbuAibOrnYLQAibIOrnOrnGGPSSGAPPPC(PEG40K)-NH2 (HSDAVFTEQYTXLRXQVAXXXYLQXIXXGGPSSGAPPPC; C6 acyl, PEG40K on Cys, C-terminal amide; Synthetic sequence PEGylated VPAC2 receptor agonist) [Agonist P511]”, the IC50 (Human VPAC1 Receptor) was > 25000 nM, the IC50 (Human PAC1 Receptor; 125I-labeled PACAP-27 tracer) was > 25000 nM and the “% increase AUC: Dose = 0.1 mg/kg” value (Normal Wistar rats) was 38%. For the same compound, the “% increase AUC: Dose = 0.3 mg/kg” value (Normal Wistar rats) was 59%, the AUC0-last [1] was 3067 ng·h/mL and the Cmax [1] was 100 ng/mL. The Tmax [1] was 16 h.

With “C6-HSDAVFTEQY(OMe)TOrnLRAibQLAAbuAibOrnyAibQSIOrnOrnGGPSSGAPPPC(PEG30K)C(PEG30K)-NH2 (HSDAVFTEQYTXLRXQLAXXXYXQSIXXGGPSSGAPPPCC; not fully specified (some residues, N-terminus, C-terminus); printed as C6-HSDAVFTEQY(OMe)TOrnLRAibQLAAbuAibOrnyAibQSIOrnOrnGGPSSGAPPPC(PEG30K)C(PEG30K)-NH2; cysteine pairing not given here) [Agonist P602]” the IC50 (Human VPAC1 Receptor) was > 25000 nM, the IC50 (Human PAC1 Receptor; 125I-labeled PACAP-27 tracer) was > 25000 nM and the “% increase AUC: Dose = 0.09 mg/kg” value (Normal Wistar rats; 0.09 mg/kg) was 73%. For the same compound, the “% increase AUC: Dose = 0.3 mg/kg” value (Normal Wistar rats) was 198% and the “24 h stab (%)” value [2] was 573%.

With “C6-HSDAVFTEQY(OMe)TOrnLRAibQLAAbuAibOrnY(OMe)LQAibIOrnOrnGGPSSGAPPPC(PEG20K)C(PEG20K)-NH2 (HSDAVFTEQYTXLRXQLAXXXYLQXIXXGGPSSGAPPPCC; C6 acyl, non-natural residues, two PEG20K, C-terminal amide; Synthetic sequence PEGylated VPAC2 receptor agonist) [Agonist P574]” the IC50 (Human VPAC1 Receptor) was > 25000 nM, the IC50 (Human PAC1 Receptor; 125I-labeled PACAP-27 tracer) was > 25000 nM and the AUC0-last [1] was 3408 ng·h/mL. The Cl/F [1] was 0.467 mL/min/kg, the Cmax [1] was 70 ng/mL and the Tmax [1] was 20 h. For the same compound, the T½ [1] was 18 h and the “24 h stab (%)” value [2] was 288%.

In the case of `CC[C@H](C)[C@H](NC(=O)[C@H](CO)NC(=O)[C@H](CC(N)=O)NC(=O)[C@H](CC(C)C)NC(=O)[C@H](Cc1ccc(O)cc1)NC(=O)[C@H](CCCCN)NC(=O)[C@H](CCCCN)NC(=O)[C@@H](NC(=O)[C@H](C)NC(=O)[C@H](CCSC)NC(=O)[C@H](CCC(N)=O)NC(=O)[C@H](CCCCN)NC(=O)[C@H](CCCN=C(N)N)NC(=O)[C@H](CC(C)C)NC(=O)[C@H](CCCN=C(N)N)NC(=O)[C@@H](NC(=O)[C@H](Cc1ccc(O)cc1)NC(=O)[C@H](CC(N)=O)NC(=O)[C@H](CC(=O)O)NC(=O)[C@@H](NC(=O)[C@H](Cc1ccccc1)NC(=O)[C@@H](NC(=O)[C@H](C)NC(=O)[C@H](CC(=O)O)NC(=O)[C@H](CO)NC(=O)[C@@H](N)Cc1cnc[nH]1)C(C)C)[C@@H](C)O)[C@@H](C)O)C(C)C)C(=O)N[C@@H](CC(C)C)C(=O)N[C@@H](CC(N)=O)C(=O)O` [VIP, reference compound], the IC50 (Human PAC1 Receptor) was > 1000 nM and the “24 h stab (%)” value [2] was 0.2%.

For “C6-HSDAVFTEQY(OMe)TOrnLRAibQLAAbuAibOrnyLQAibIOrnOrnGGPSSGAPPPC(PEG30K)C(PEG30K)-NH2 (HSDAVFTEQYTXLRXQLAXXXYLQXIXXGGPSSGAPPPCC; not fully specified (some residues, N-terminus, C-terminus); printed as C6-HSDAVFTEQY(OMe)TOrnLRAibQLAAbuAibOrnyLQAibIOrnOrnGGPSSGAPPPC(PEG30K)C(PEG30K)-NH2; cysteine pairing not given here) [Agonist P570]”, the IC50 (Human VPAC1 Receptor) was > 25000 nM, the IC50 (Human PAC1 Receptor; 125I-labeled PACAP-27 tracer) was > 25000 nM and the “% increase AUC: Dose = 0.1 mg/kg” value (Normal Wistar rats) was 36%. It also gave an AUC0-last [1] of 3891 ng·h/mL, a Cl/F [1] of 0.417 mL/min/kg and a Cmax [1] of 71 ng/mL. For the same compound, the Tmax [1] was 20 h and the T½ [1] was 25 h.

In the case of “C6-HSDAVFTEQY(OMe)TOrnLRAibQLAAbuAibOrnYLQSIOrnC(PEG20K)OrnGGPSSGAPPPC(PEG20K)-NH2 (HSDAVFTEQYTXLRXQLAXXXYLQSIXCXGGPSSGAPPPC; C6 acyl, two PEG20K, C-terminal amide; Synthetic sequence PEGylated VPAC2 receptor agonist) [Agonist P555]”, the IC50 (Human VPAC1 Receptor) was > 25000 nM, the IC50 (Human PAC1 Receptor; 125I-labeled PACAP-27 tracer) was > 25000 nM and the AUC0-last [1] was 4918 ng·h/mL. It also gave a Cl/F [1] of 0.333 mL/min/kg, a Cmax [1] of 102 ng/mL and a Tmax [1] of 16 h. For the same compound, the T½ [1] was 13 h and the “24 h stab (%)” value [2] was 117%.

With “C6-HSDAVFTEQY(OMe)TOrnLRAibQVAAAibOrnYLQSIOrnOrnC(PEG20K)GGPSSGAPPPC(PEG20K)NH2 (HSDAVFTEQYTXLRXQVAAXXYLQSIXXCGGPSSGAPPPC; C6 acyl, two PEG20K, C-terminal amide; Synthetic sequence PEGylated VPAC2 receptor agonist) [Agonist P562]” the IC50 (Human VPAC1 Receptor) was > 25000 nM, the IC50 (Human PAC1 Receptor; 125I-labeled PACAP-27 tracer) was > 25000 nM and the AUC0-last [1] was 5456 ng·h/mL. For the same compound, the Cl/F [1] was 0.317 mL/min/kg, the Cmax [1] was 120 ng/mL and the Tmax [1] was 24 h. The T½ [1] was 25 h and the “24 h stab (%)” value [2] was 213%.
